Results from article PMC12475274, “Harnessing indole scaffolds to identify small-molecule IRE1α inhibitors modulating XBP1 mRNA splicing” (Nature Communications, 2025).

Biological target: the molecule itself
Experiment: crystal structure; p-IRE1α (15 mg/mL) co-crystallised with 1 mM IA107; hanging drop, 0.05 M bicine pH 9.0, 36% PEG300, 0.12 M NaCl, 20 °C; four copies in the asymmetric unit

B1: phosphorylated human IRE1α kinase and RNase domain (residues 547–977) (domain or fragment, UniProt O75460 547-977, looked up)
chain: GSSPSLEQDDGDEETSVVIVGKISFCPKDVLGHGAEGTIVYRGMFDNRDVAVKRILPECFSFADREVQLLRESDEHPNVIRYFCTEKDRQFQYIAIELCAATLQEYVEQKDFAHLGLEPITLLQQTTSGLAHLHSLNIVHRDLKPHNILISMPNAHGKIKAMISDFGLCKKLAVGRHSFSRRSGVPGTEGWIAPEMLSEDCKENPTYTVDIFSAGCVFYYVISEGSHPFGKSLQRQANILLGACSLDCLHPEKHEDVIARELIEKMIAMDPQKRPSAKHVLKHPFFWSLEKQLQFFQDVSDRIEKESLDGPIVKQLERGGRAVVKMDWRENITVPLQTDLRKFRTYKGGSVRDLLRAMRNKKHHYRELPAEVRETLGSLPDDFVCYFTSRFPHLLAHTYRAMELCSHERLFQPYYFHEPPEPQPPVTPDAL
modifications: phosphorylated (fully phosphorylated fraction, verified by LC-MS); the phosphorylated residues are not given
notes: Human IRE1α (inositol-requiring enzyme 1 alpha), kinase and RNase domain, residues 547-977; Fully phosphorylated fraction separated from the unphosphorylated protein on the anion exchange column; also called p-IRE1α; phosphorylated IRE1α
B1: binds.
